# Results taken from the supplement of paper PMC12667976.
# ± gives the standard error.
# B1: library; numbered along this chain (parent)
# chain: MATDAALRRLLRLHRTEIAVAVDSAFPLLHALADHDVVPEDKFQETLHLKEKEGCPQAFHALLSWLLTQDSTAILDFWRVLFKDYNLERYGRLQPILDSFPKDVDLSQPRKGRKPPAVPKALVPPPRLPTKRKASEEARAAAPAALTPRGTASPGSQLKAKPPKKPESSAEQQRLPLGNGIQTMSASVQRAVAMSSGDVPGARGAVEGILIQQVFESGGSKKCIQVGGEFYTPSKFEDSGSGKNKARSSSGPKPLVRAKGAQGAAPGGGEARLGQQGSVPAPLALPSDPQLHQKNEDECAVCRDGGELICCDGCPRAFHLACLSPPLREIPSGTWRCSSCLQATVQEVQPRAEEPRPQEPPVETPLPPGLRSAGEEVRGPPGEPLAGMDTTLVYKHLPAPPSAAPLPGLDSSALHPLLCVGPEGQQNLAPGARCGVCGDGTDVLRCTHCAAAFHWRCHFPAGTSRPGTGLRCRSCSGDVTPAPVEGVLAPSPARLAPGPAKDDTASHEPALHRDDLESLLSEHTFDGILQWAIQSMARPAAPFPS
# Variants of: B1
# Assay: AIRE transcriptional activation functional score (insulin promoter-GFP; nonsense median 0, synonymous median 1) (normalised score); higher = higher AIRE activity (more reporter activation)
# Settings: with insulin promoter-GFP reporter in HEK293
# Method: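 Deep mutational scan of full-length human AIRE (codon-optimized cDNA, DT-POPCode NNN libraries over three regions) integrated at a Bxb1 landing pad in HEK293 cells carrying an insulin core promoter-GFP reporter at a Flp-In site. Cells were sorted for the top 10% GFP about 14 days after transfection. Variant frequency log-ratios (select vs non-select, TileSeq) were rescaled so that the nonsense median is 0 and the synonymous median is 1, then averaged over biological replicates.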
row,Variant,AIRE transcriptional activation functional score
1,Q212A,-0.0175 ± 0.1
2,R538W,1.54 ± 0.038
3,K221E,1.1 ± 0.34
4,K221S,0.464 ± 0.26
5,L146R,0.262 ± 0.57
6,A261R,0.741 ± 0.37
7,A261N,0.506 ± 0.19
8,R272W,0.893 ± 0.044
9,E17C,-0.595 ± 0.37
10,P109I,0.666 ± 0.43
11,P430R,0.778 ± 0.23
12,P430W,1.3 ± 0.025
13,D238S,0.788 ± 0.4
14,H292T,1.13 ± 0.32
15,S71A,1.08 ± 0.21
16,L470P,0.863 ± 0.21
17,T441Y,1.12 ± 0.098
18,L529E,-0.369 ± 0.033
19,E207A,-0.0187 ± 0.22
20,E207T,0.3 ± 0.44
21,V226C,0.347 ± 0.12

row,Variant,AIRE transcriptional activation functional score
1,P350E,1.04 ± 0.11
2,L341K,0.983 ± 0.25
3,L341D,0.832 ± 0.14
4,C472I,0.154 ± 0.19
5,C472Q,-0.424 ± 0.073
6,C322I,0.327 ± 0.14
7,C322V,0.9 ± 0.12
8,H507Q,0.898 ± 0.13
9,P380F,0.369 ± 0.28
10,A191W,0.116 ± 0.052
11,C434T,0.243 ± 0.14
12,G268Y,0.298 ± 0.071
13,E137D,1.23 ± 0.18
14,A265H,0.76 ± 0.37
15,A265C,0.821 ± 0.14
16,G208P,0.201 ± 0.22
17,P357V,0.974 ± 0.11
18,Y231T,0.493 ± 0.17
19,P360K,0.715 ± 0.52
20,C314I,1.08 ± 0.13
21,C314V,1.13 ± 0.15

row,Variant,AIRE transcriptional activation functional score
1,A399I,0.768 ± 0.06
2,R15T,0.316 ± 0.23
3,R15C,-0.257 ± 0.17
4,D389A,1.04 ± 0.42
5,T232L,1.1 ± 0.32
6,T232N,0.834 ± 0.11
7,N86T,-0.124 ± 0.51
8,N86Y,0.0334 ± 0.18
9,F236P,0.266 ± 0.28
10,A73C,0.629 ± 0.31
11,A73W,-0.767 ± 0.23
12,R303C,1.23 ± 0.11
13,G527I,1.02 ± 0.76
14,Q530E,0.29 ± 0.21
15,Q530A,0.824 ± 0.38
16,Q530C,-0.0453 ± 0.094
17,Q530M,-0.198 ± 0.14
18,P176A,1.33 ± 0.48
19,S234I,0.96 ± 0.64
20,E270G,1.11 ± 0.2
21,L97F,1.29 ± 0.34

row,Variant,AIRE transcriptional activation functional score
1,E296R,0.658 ± 0.33
2,E296V,0.556 ± 0.39
3,G218F,0.259 ± 0.13
4,R257S,0.904 ± 0.32
5,R257N,-1.39 ± 0.2
6,V377D,0.248 ± 0.3
7,L370H,0.944 ± 0.2
8,R471S,0.674 ± 0.38
9,S241M,1.1 ± 0.066
10,D288P,1.15 ± 0.18
11,D288T,0.903 ± 0.2
12,Q225F,-0.00208 ± 0.1
13,D41W,0.551 ± 0.1
14,D41Y,1.79 ± 0.26
15,M194Y,0.702 ± 0.18
16,M194A,0.708 ± 0.14
17,Q172V,1.18 ± 0.13
18,D76R,0.463 ± 0.69
19,H14M,-0.84 ± 0.27
20,H14S,0.00226 ± 0.49
